What all share (assay): SPR
Data set [1] relates to His6-AdiY (Escherichia coli K-12 MG1655). Conditions: pH 6.0, phosphate; 1:4 DNA:protein; SPR (Biacore T200, SA chip), 25 C, 50 mM sodium phosphate pH 6.0-7.0 (50 mM citrate at pH 5.5 and 5.8), 250 mM NaCl, 2% glycerol, 2 mM DTT, 0.005% P20; 1:1 …. (In SPR one partner is held on a chip, and binding of the other changes the refractive index at the surface.)
In data set [2] the target is T1, His6-AdiY (Escherichia coli K-12 MG1655) (UniProt P33234).
T1 sequence: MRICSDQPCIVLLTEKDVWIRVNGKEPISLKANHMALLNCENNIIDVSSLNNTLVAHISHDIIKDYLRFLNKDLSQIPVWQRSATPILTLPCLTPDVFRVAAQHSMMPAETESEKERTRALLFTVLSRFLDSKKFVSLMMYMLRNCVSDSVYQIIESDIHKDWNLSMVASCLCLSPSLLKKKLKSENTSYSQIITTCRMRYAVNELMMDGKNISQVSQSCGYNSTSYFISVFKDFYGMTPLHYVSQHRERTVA
Conditions: SPR (Biacore T200, SA chip), 25 C, 50 mM sodium phosphate pH 6.0-7.0 (50 mM citrate at pH 5.5 and 5.8), 250 mM NaCl, 2% glycerol, 2 mM DTT, 0.005% P20; 1:1 ….

In data set [3] the target is T2, His6-AdiY-H34A/H60A H34A;H60A (Escherichia coli K-12 MG1655) (UniProt P33234).
T2 sequence: T1 sequence with H34A, H60A
To be noted: SPR (Biacore T200, SA chip), 25 C, 50 mM sodium phosphate pH 6.0-7.0 (50 mM citrate at pH 5.5 and 5.8), 250 mM NaCl, 2% glycerol, 2 mM DTT, 0.005% P20; 1:1 ….

Residue numbers refer to the chain shown, from its start.

Kd and binding data for four substances are collected here from publication PMC12826058.

As usually defined, the Kd is the concentration at which binding is half-saturated.

For the substance PadiA (adiA promoter), in data set [1], the dissociation constant (Kd) turned out to be 170 nM.

Regarding PadiC (adiC promoter), the Kd in data set [1] amounted to 120 nM.

For “TCTACGGTATGACGCCGCTGCATTATGTTAGTCAGCACAGAGAACGCACTGTCGCCTGATTTTTAACCTTAACGAAGAGCTATATTAATAACGGCATCAGCGATAACCCGGTCGATAATAATTCAACTATCGAATGCAGGCGTATGATATGACGTAATTTATTGTCACGAAGCTCGCCTTCGCAGGAGTTTAATT (double strand) [PadiC (adiC promoter)]”, in data set [2], the Kd was 120 nM and the binding entry was “binds”. For the same substance, in data set [3], the binding entry is recorded as “no binding”.

In turn, “TGCTTACCCGGTTATGAAGGAATCTTCGTTGCGGGCAAGTATCTTCCGGCCTTTTCGGGCTGTAAAGCGCGTGAAAAACAAACATTTTTGAAATATTTAGTTTTATAAACAATACGTTATGTGATTATTTTAAATTATTTTCACTGCTTATTATCGACGGCTAAACTATTTTTTTGGCTGATACTGATATCGTCT (double strand) [PadiA (adiA promoter)]” came in with a Kd in data set [2] of 170 nM. In addition, the figures for the binding result in data set [2] and in data set [3] were “binds” and “no binding”, respectively.
